The target in this assay is human growth hormone secretagogue receptor type 1a (human, UniProt Q92847 1-366). The assay is described as follows: cell-based or functional assay.

*1 amine or outer side, *2 acyl side, *3 side chain or, on linkers, in order; H or OH if unused. [ ]: non-standard residue; d: D form. The star is where a group is joined. Achc(cis-1,4) = O=C([C@H]1CC[C@@H](N[*:1])CC1)[*:2]; Achc(trans-4) = O=C([C@H]1CC[C@H](N[*:1])CC1)[*:2]; 3Amb = NCc1cccc(C(=O)O)c1; Octanoyl = CCCCCCCC(=O)*

Sequence of human growth hormone secretagogue receptor type 1a (Q92847 whole entry): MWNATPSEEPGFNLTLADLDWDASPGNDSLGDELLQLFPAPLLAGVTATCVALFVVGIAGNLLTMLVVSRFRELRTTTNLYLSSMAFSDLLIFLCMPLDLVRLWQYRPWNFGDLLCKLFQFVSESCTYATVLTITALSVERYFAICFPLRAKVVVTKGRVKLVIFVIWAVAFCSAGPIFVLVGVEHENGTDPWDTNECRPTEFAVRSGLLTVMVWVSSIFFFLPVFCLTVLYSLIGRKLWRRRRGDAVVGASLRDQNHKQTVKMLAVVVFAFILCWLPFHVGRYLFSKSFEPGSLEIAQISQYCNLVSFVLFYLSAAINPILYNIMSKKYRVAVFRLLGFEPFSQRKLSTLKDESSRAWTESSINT

B1: H-[tACC]-S(O-octanoyl)-FLSPEHQRVQQRKESKKPPAKLQPR-OH (peptide)
peptide: H-[Achc(trans-4)]S(Octanoyl)FLSPEHQRVQQRKESKKPPAKLQPR-OH
SMILES: CCCCCCCC(=O)OC[C@H](NC(=O)[C@H]1CC[C@H](N)CC1)C(=O)N[C@@H](Cc1ccccc1)C(=O)N[C@@H](CC(C)C)C(=O)N[C@@H](CO)C(=O)N1CCC[C@H]1C(=O)N[C@@H](CCC(=O)O)C(=O)N[C@@H](Cc1c[nH]cn1)C(=O)N[C@@H](CCC(N)=O)C(=O)N[C@@H](CCCNC(=N)N)C(=O)N[C@H](C(=O)N[C@@H](CCC(N)=O)C(=O)N[C@@H](CCC(N)=O)C(=O)N[C@@H](CCCNC(=N)N)C(=O)N[C@@H](CCCCN)C(=O)N[C@@H](CCC(=O)O)C(=O)N[C@@H](CO)C(=O)N[C@@H](CCCCN)C(=O)N[C@@H](CCCCN)C(=O)N1CCC[C@H]1C(=O)N1CCC[C@H]1C(=O)N[C@@H](C)C(=O)N[C@@H](CCCCN)C(=O)N[C@@H](CC(C)C)C(=O)N[C@@H](CCC(N)=O)C(=O)N1CCC[C@H]1C(=O)N[C@@H](CCCNC(=N)N)C(=O)O)C(C)C
Take B1: the “EC50 (nM); Ca2+ induction in HEK293 cells stably expressing the human ghrelin receptor” value (“EC50 (nM); Ca2+ induction” below) was found to be 1.89 nM.

B2: H-Mamb-S(O-octanoyl)-FLSPEHQRVQQRKESKKPPAKLQPR-OH (peptide)
peptide: H-[3Amb]S(Octanoyl)FLSPEHQRVQQRKESKKPPAKLQPR-OH
SMILES: CCCCCCCC(=O)OC[C@H](NC(=O)c1cccc(CN)c1)C(=O)N[C@@H](Cc1ccccc1)C(=O)N[C@@H](CC(C)C)C(=O)N[C@@H](CO)C(=O)N1CCC[C@H]1C(=O)N[C@@H](CCC(=O)O)C(=O)N[C@@H](Cc1c[nH]cn1)C(=O)N[C@@H](CCC(N)=O)C(=O)N[C@@H](CCCNC(=N)N)C(=O)N[C@H](C(=O)N[C@@H](CCC(N)=O)C(=O)N[C@@H](CCC(N)=O)C(=O)N[C@@H](CCCNC(=N)N)C(=O)N[C@@H](CCCCN)C(=O)N[C@@H](CCC(=O)O)C(=O)N[C@@H](CO)C(=O)N[C@@H](CCCCN)C(=O)N[C@@H](CCCCN)C(=O)N1CCC[C@H]1C(=O)N1CCC[C@H]1C(=O)N[C@@H](C)C(=O)N[C@@H](CCCCN)C(=O)N[C@@H](CC(C)C)C(=O)N[C@@H](CCC(N)=O)C(=O)N1CCC[C@H]1C(=O)N[C@@H](CCCNC(=N)N)C(=O)O)C(C)C
Take B2: the “EC50 (nM); Ca2+ induction” value is 1.56 nM.

B3: H-[cACC]-S(O-octanoyl)-FLSPEHQRVQQRKESKKPPAKLQPR-OH (peptide)
peptide: H-[Achc(cis-1,4)]S(Octanoyl)FLSPEHQRVQQRKESKKPPAKLQPR-OH
SMILES: CCCCCCCC(=O)OC[C@H](NC(=O)[C@H]1CC[C@@H](N)CC1)C(=O)N[C@@H](Cc1ccccc1)C(=O)N[C@@H](CC(C)C)C(=O)N[C@@H](CO)C(=O)N1CCC[C@H]1C(=O)N[C@@H](CCC(=O)O)C(=O)N[C@@H](Cc1c[nH]cn1)C(=O)N[C@@H](CCC(N)=O)C(=O)N[C@@H](CCCNC(=N)N)C(=O)N[C@H](C(=O)N[C@@H](CCC(N)=O)C(=O)N[C@@H](CCC(N)=O)C(=O)N[C@@H](CCCNC(=N)N)C(=O)N[C@@H](CCCCN)C(=O)N[C@@H](CCC(=O)O)C(=O)N[C@@H](CO)C(=O)N[C@@H](CCCCN)C(=O)N[C@@H](CCCCN)C(=O)N1CCC[C@H]1C(=O)N1CCC[C@H]1C(=O)N[C@@H](C)C(=O)N[C@@H](CCCCN)C(=O)N[C@@H](CC(C)C)C(=O)N[C@@H](CCC(N)=O)C(=O)N1CCC[C@H]1C(=O)N[C@@H](CCCNC(=N)N)C(=O)O)C(C)C
With B3, the “EC50 (nM); Ca2+ induction” value stood at 0.379 nM.

The values are drawn from patent publication US9657062B2, “Ghrelin analogues” (Zealand Pharma A/S, priority 2012, dated 2017).
